Data reported in article PMC10384999.

Molecular target: T1, ArcR (Staphylococcus aureus NCTC8325 (?)) (UniProt Q2FUY1)
T1 sequence: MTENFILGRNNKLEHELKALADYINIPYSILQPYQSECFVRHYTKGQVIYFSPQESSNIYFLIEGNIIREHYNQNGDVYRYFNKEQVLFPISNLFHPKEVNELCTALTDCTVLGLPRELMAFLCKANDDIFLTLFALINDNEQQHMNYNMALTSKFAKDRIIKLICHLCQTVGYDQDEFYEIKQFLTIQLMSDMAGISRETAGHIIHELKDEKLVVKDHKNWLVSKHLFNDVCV
Assay: EMSA
Settings: 25 mM HEPES, 300 mM NaCl, 1 mM DTT, 10% glycerol, pH 7.8; 30 min at room temperature ([…]) or 37 °C ([…]

Sequence | binding
AGCGCGTGTTGTTATGTCGCGAATGGTAATCTTTTCTAAATCTTTTTCTTGTAGTAATTTAGTGAACGCTTGTTTAATGGAGGACTTTGTCTTTCTAATTCGCCTATCTTCTTTCAAAAATAAATCAACCTCCTTGTGTTATTGAACAATGTGGGTGTATTTGTCTATTAATGAACGTATTGATGAACATTGTGTATTGTTTATTCCCACTTACATATTATAATAGACAACATGCGAAATATTCAACACATTGTCTAATAAGGAGGT (double strand) [tetA promoter fragment] | no binding
ACCTACCTTTCGTTAGTTAGGTTGTAAGCCATATGGTAATTGATAGTATTTTAATTTGCAATAGATTGTTGTTATAATTAAACGGAAATATTTGTAATTGCAACTTAATTTTCCTGTAACATAGTGTGATTAATTTTCAGTAGGGGGTTATAAAAATTGAAGGATAAGATTATTGATAACGCAATAACCTTATTTTCAGAGAAGGGGTATGACGGTACAACACTTGATGATATAGCT (double strand) [ica promoter (icaA) fragment] | binds
TCAACTTTGACTAACCCTCGAAATTGAAATGCTTCCTTTCAAATTTTAAATAAAAGTTAAAAACATATTCTTAAAATAATCACTCATCATCACTCAGTAATTTATCAGTTGCTACATTAAATATACTAATATAAACGATTATAAATATTTGATATGTCTCAACTGCAATATTCTAAATTGACATATTGATTATTGTTTCCTCAAATCGTTTTAAAAAATAGAAGGATGATGAAAATGAAAACACGTATAGTCAGCTCAGTAACAACAACACTATTGCTAGGTT (double strand) [hla promoter fragment] | binds
